What is called IC50 is the concentration that gives 50% inhibition.

Drawing on the Immune Epitope Database (IEDB), this text covers IC50 for 21 sequences.

One assay concerns the target HLA-B*57:01. In words: IEDB peptide-MHC binding, purified MHC/competitive/radioactivity; ≥ and ≤ were set here for values at or beyond the usual limits of such assays. The following applies: source organism: Bordetella pertussis.
On to GLYQTYTEW, for which the 50% inhibitory concentration (IC50) amounted to 41.4 µM.
In the case of ISVRVHVSK, the IC50 worked out at 2.74 µM.
The same measure, in the same setting: to ITNKRAALI belongs 40 µM.

For the next assay, the target named is HLA-B*44:03. The description is as above. The following applies: source organism: Bordetella pertussis.
With IESKISQSV, the IC50 worked out at 39.9 µM.
Consider QQVQVLQRQ, for which the IC50 was 15.8 µM.

In another assay the target is HLA-B*07:02. Described as above. To be noted: source organism: Bordetella pertussis.
Regarding APQAAPLSI, the IC50 was found to be 2.21 µM.
As for SPRRARRAL, the IC50 is 0.0138 µM.

A further assay deals with HLA-A*02:01. Described as above. To be noted: source organism: Bordetella pertussis.
With ALMLACTGL, the IC50 turned out to be 10.8 µM.
Regarding LAMPWTFHA, the IC50 is 1.17 µM.
For LLNAGGTLL, the IC50 was 2.57 µM.
The same measure, in the same setting: the result for VLAPRLYLT reads 7.98 µM.
Consider YQTYTEWSV, for which the IC50 was 0.384 µM.

The next assay has as its target HLA-B*53:01. The description is as above. To be noted: source organism: Bordetella pertussis.
On to APQAAPLSI, for which the IC50 is 42.4 µM.
Take GLYQTYTEW: the IC50 was 69.9 µM.
For LAWALMLAC, the IC50 was 6.64 µM.
For the sequence TFTGKVTNG, the IC50 stood at 39.9 µM.
Same read-out and setting: the result for TPFDIKLKE reads 34.7 µM.
On the same count and under the same terms, to TPFIIKLKD belongs at least 78.2 µM; to YYDYEDATF, 69.9 µM.

For another assay, the target named is HLA-B*35:01. Described as above. The following applies: source organism: Bordetella pertussis.
Regarding AAGFDPEVQ, the IC50 was found to be 32.7 µM.
For LAAIASAAH, the IC50 was determined as 49.8 µM.
With LANDGTIVI, the IC50 came to 5.87 µM.
In the case of LAPTVGVAF, the IC50 stood at 7.6 µM.
